From paper PMC10978961, “Architecture and activation of human muscle phosphorylase kinase” (Nature Communications, 2024)

Molecular target: the molecule itself
Experiment: cryo-EM structure; inactive PhK holoenzyme, dephosphorylated, with 4 mM EGTA and excess calmodulin; 25 mM HEPES pH 6.8, 150 mM NaCl, 2 mM DTT; subunits co-expressed and purified as a complex

B1: human muscle phosphorylase kinase (PhK) β-subunit (natural protein, UniProt Q93100 1-1093, looked up)
chain: MAGAAGLTAEVSWKVLERRARTKRSGSVYEPLKSINLPRPDNETLWDKLDHYYRIVKSTLLLYQSPTTGLFPTKTCGGDQKAKIQDSLYCAAGAWALALAYRRIDDDKGRTHELEHSAIKCMRGILYCYMRQADKVQQFKQDPRPTTCLHSVFNVHTGDELLSYEEYGHLQINAVSLYLLYLVEMISSGLQIIYNTDEVSFIQNLVFCVERVYRVPDFGVWERGSKYNNGSTELHSSSVGLAKAALEAINGFNLFGNQGCSWSVIFVDLDAHNRNRQTLCSLLPRESRSHNTDAALLPCISYPAFALDDEVLFSQTLDKVVRKLKGKYGFKRFLRDGYRTSLEDPNRCYYKPAEIKLFDGIECEFPIFFLYMMIDGVFRGNPKQVQEYQDLLTPVLHHTTEGYPVVPKYYYVPADFVEYEKNNPGSQKRFPSNCGRDGKLFLWGQALYIIAKLLADELISPKDIDPVQRYVPLKDQRNVSMRFSNQGPLENDLVVHVALIAESQRLQVFLNTYGIQTQTPQQVEPIQIWPQQELVKAYLQLGINEKLGLSGRPDRPIGCLGTSKIYRILGKTVVCYPIIFDLSDFYMSQDVFLLIDDIKNALQFIKQYWKMHGRPLFLVLIREDNIRGSRFNPILDMLAALKKGIIGGVKVHVDRLQTLISGAVVEQLDFLRISDTEELPEFKSFEELEPPKHSKVKRQSSTPSAPELGQQPDVNISEWKDKPTHEILQKLNDCSCLASQAILLGILLKREGPNFITKEGTVSDHIERVYRRAGSQKLWLAVRYGAAFTQKFSSSIAPHITTFLVHGKQVTLGAFGHEEEVISNPLSPRVIQNIIYYKCNTHDEREAVIQQELVIHIGWIISNNPELFSGMLKIRIGWIIHAMEYELQIRGGDKPALDLYQLSPSEVKQLLLDILQPQQNGRCWLNRRQIDGSLNRTPTGFYDRVWQILERTPNGIIVAGKHLPQQPTLSDMTMYEMNFSLLVEDTLGNIDQPQYRQIVVELLMVVSIVLERNPELEFQDKVDLDRLVKEAFNEFQKDQSRLKEIEKQDDMTSFYNTPPLGKRGTCSYLTKAVMNLLLEGEVKPNNDDPCLIS
modifications: farnesyl group on Cys1090 (mass spectrometry; density in the cryo-EM maps); treated with λ-phosphatase
notes: phosphorylase kinase β-subunit, human, full length; domains D1-D5; Forms the central β4 homotetramer of the hexadecamer
- stoichiometry N: 4
